Experiment [1] has as its target T1, recombinant mouse EphA4-Fc fusion protein (mouse, UniProt Q03137 20-547, limits assumed).
T1 construct: also called mEphA4; not shown: Fc part, not described
The experiment in a line: ELISA, well P15 [part 2].

For experiment [2], the target named is T2, recombinant human EphB4-Fc fusion protein (human, UniProt P54760 16-539).
T2 construct: extracellular domain; also called hEphB4; hu EphB4-Fc
T2 sequence (looked up): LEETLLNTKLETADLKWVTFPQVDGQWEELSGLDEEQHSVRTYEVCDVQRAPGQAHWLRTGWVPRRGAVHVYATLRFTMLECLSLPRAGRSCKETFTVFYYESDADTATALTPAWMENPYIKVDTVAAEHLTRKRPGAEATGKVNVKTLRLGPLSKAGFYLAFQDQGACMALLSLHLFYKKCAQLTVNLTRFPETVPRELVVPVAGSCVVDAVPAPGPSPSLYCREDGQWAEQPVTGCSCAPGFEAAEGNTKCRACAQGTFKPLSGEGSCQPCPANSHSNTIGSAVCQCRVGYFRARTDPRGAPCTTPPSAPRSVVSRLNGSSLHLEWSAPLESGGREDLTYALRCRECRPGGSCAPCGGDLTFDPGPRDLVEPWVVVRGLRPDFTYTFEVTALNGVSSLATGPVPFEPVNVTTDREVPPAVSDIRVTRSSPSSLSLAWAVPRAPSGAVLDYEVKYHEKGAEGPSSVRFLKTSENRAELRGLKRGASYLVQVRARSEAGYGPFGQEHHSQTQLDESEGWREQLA
As to the kind of experiment: SET (MSD), solution equilibrium titration. The procedure:
Two independent measurements were performed on human and murine EphB4-Fc.

For experiment [3], the target named is T1, recombinant mouse EphA4-Fc fusion …. The experiment in a line: ELISA on coated receptor. The procedure: (§1) A 96-well plate was coated with recombinant mEphB1, -2, -3, -4, -6, mEphA4 and hEphB4 in PBS o/n at 4° C. (5 μg/mL; 100 μL/well). The next day, the antigen was discarded and the plate blocked with 3% BSA/PBS (300 μl/well) for 2 hrs at room temperature (RT). Blocking solution was discarded and anti-EphB4 Fabs were added to the wells at a concentration of 20 μg/mL in 1% BSA/PBS and incubated for 1 hr at RT. Fabs were discarded and the plate was washed 3× with PBS. Anti-human F(ab′)₂—HRP was added at a concentration recommended by the manufacturer in 1% BSA/PBS and incubated for 1 hr at RT. The plate was washed 3× with PBS and 100 μL/well chemifluorescent substrate was added. After development, fluorescence was measured in a fluorescence reader.
(ELISA stands for enzyme-linked immunosorbent assay.)

Another experiment addresses T3, recombinant mouse EphB2 (mouse, UniProt P54763 19-540, limits assumed).
T3 construct: also called mEphB2
T3 sequence (looked up): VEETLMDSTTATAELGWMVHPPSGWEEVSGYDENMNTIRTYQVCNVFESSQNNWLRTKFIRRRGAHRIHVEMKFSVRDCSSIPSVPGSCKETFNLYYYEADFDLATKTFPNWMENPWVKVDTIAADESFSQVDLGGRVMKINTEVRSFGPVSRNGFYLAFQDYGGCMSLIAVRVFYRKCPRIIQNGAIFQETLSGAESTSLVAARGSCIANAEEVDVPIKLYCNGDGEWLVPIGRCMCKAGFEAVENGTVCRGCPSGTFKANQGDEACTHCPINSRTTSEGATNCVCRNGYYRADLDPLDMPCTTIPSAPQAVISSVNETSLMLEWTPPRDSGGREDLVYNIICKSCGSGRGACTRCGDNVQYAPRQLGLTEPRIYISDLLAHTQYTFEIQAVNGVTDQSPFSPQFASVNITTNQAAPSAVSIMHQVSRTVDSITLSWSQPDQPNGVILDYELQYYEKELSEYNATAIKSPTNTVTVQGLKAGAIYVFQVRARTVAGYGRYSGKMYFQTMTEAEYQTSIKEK
The experiment in a line: ELISA on coated receptor. The procedure: as §1

Another experiment deals with T4, rat EphB1 (rat, UniProt P09759 18-538, limits assumed).
T4 sequence (looked up): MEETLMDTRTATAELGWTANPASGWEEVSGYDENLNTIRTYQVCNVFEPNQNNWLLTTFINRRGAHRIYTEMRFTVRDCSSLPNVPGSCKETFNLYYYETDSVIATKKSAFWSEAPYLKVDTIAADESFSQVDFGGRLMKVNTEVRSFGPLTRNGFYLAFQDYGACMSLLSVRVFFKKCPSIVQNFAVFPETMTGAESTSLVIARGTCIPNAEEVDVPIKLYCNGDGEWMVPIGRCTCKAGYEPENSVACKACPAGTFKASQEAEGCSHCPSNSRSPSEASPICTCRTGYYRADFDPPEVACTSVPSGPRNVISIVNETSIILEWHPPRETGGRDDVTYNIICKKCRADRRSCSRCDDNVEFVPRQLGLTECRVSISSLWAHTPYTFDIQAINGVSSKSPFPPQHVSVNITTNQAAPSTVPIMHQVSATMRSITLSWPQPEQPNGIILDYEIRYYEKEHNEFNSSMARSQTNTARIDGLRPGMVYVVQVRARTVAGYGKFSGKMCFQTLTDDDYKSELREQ
As to the kind of experiment: ELISA on coated receptor.

Experiment [4] has as its target T2, recombinant human EphB4-Fc fusion …. The experiment in a line: competition ELISA on coated hEphB4, competitor biotinylated mEphrinB2 250 ng/mL. As for the experimental part: A 96-well plate was coated with recombinant hEphB4 in PBS o/n at 4° C. (5 μg/mL; 100 μL/well). The next day, the antigen was discarded and the plate blocked with 3% BSA/PBS (300 μl/well) for 2 hrs at room temperature (RT). Blocking solution was discarded and anti-EphB4 Fabs were added to the wells at different concentrations in 1% BSA/PBS and incubated for 30 min at RT. Recombinant biotinylated murine EphrinB2 was added at a final concentration of 250 ng/mL and incubated at RT for a further 30 min. The plate was washed and bound EphrinB2 was detected with Streptavidin-HRP (incubation 30 min at RT) and chemifluorescent substrate.

The Kd is the constant that tells how readily two partners part at equilibrium.

T1 sequence (Q03137 20-547 limits assumed): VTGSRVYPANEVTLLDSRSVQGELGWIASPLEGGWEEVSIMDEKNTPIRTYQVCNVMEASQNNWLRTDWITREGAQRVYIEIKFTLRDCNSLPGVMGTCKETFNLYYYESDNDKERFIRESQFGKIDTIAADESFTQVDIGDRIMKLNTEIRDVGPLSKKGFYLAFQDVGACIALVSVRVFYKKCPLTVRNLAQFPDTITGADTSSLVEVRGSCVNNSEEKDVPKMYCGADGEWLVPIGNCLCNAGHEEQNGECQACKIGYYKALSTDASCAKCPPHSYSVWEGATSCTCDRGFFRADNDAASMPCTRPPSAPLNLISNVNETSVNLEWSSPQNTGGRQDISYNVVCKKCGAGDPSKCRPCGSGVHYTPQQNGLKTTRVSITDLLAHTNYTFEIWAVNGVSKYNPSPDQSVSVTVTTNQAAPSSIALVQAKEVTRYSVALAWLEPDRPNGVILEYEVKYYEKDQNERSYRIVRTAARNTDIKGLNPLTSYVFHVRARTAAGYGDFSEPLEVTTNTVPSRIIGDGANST

B1: MOR03640 Fab (Fab, V domains shown)
VH: QVQLVESGGGLVQPGGSLRLSCAASGFTFNNSWMSWVRQAPGKGLEWVSNITSSSSMTHYADSVKGRFTISRDNSKNTLYLQMNSLRAEDTAVYYCARKGMSFYNNKYAKSMFDLWGQGTLVTVSS
VL: DIELTQPPSVSVAPGQTARISCSGDNLGKKYVHWYQQKPGQAPVLVIYYDSKRPSGIPERFSGSNSGNTATLTISGTQAEDEADYYCSAWTTTMMHIVFGGGTKLTVLG
notes: Monomeric HuCAL Fab, purified, MH-tagged
B1: the binding result in experiment [1] was “no binding”. Further, in experiment [2], the Kd is 1.05 nM.

B2: MOR03641 Fab (Fab, V domains shown)
VH: QVQLVQSGAEVKKPGSSVKVSCKASGGTFSTYAISWVRQAPGQGLEWMGRIIPIFGTANYAQKFQGRVTITADESTSTAYMELSSLRSEDTAVYYCARSSYTILTTYYNYNAMDNWGQGTLVTVSS
VL: DIQMTQSPSSLSASVGDRVTITCRASQNINNFLNWYQQKPGKAPKLLIYGSSILQSGVPSRFSGSGSGTDFTLTISSLQPEDFAVYYCHQVSDTSDTFGQGTKVEIKR
notes: Monomeric HuCAL Fab (VH1A, kappa1), purified, MH-tagged; also called 3541 [sic]
In the case of B2, the binding result (in experiment [3]; in the experiment with recombinant mouse EphB2; with rat EphB1) was “no binding (tested: 20 µg/mL)” throughout. Moreover, the Kd in experiment [2] was over 5 nM. Further, in experiment [4], the “IC50 (read off the curve)” value is about 4 µg/mL.

B3: MOR03639 Fab (Fab, V domains shown)
VH: QVQLVESGGGLVQPGGSLRLSCAASGFTFSNYYLHWVRQAPGKGLEWVSGISYSGSSTYYADSVKGRFTISRDNSKNTLYLQMNSLRAEDTAVYYCARFYQRRQIPHGYDVWGQGTLVTVSS
VL: DIELTQPPSVSVAPGQTARISCSGDNIGDYYVHWYQQKPGQAPVLVIYRDSNRPSGIPERFSGSNSGNTATLTISGTQAEDEADYYCGSYDMPFGGTVFGGGTKLTVLG
notes: Monomeric HuCAL Fab (VH3, lambda3), purified, MH-tagged
Turning to B3, the binding result (in experiment [3]; in the experiment with recombinant mouse EphB2; in the experiment with rat EphB1) was “no binding (tested: 20 µg/mL)” throughout.

(Values after patent US20090137002A1 (published 2009).)
